Experimental data as given in US20240181022A1, “AMURINS LYSINS, AND LYSIN-ANTIMICROBIAL PEPTIDE (AMP) CONSTRUCTS ACTIVE AGAINST GRAM-NEGATIVE BACTERIA” (priority 2021, published 2024).
Converted amounts (≈) assume the structure as drawn. “And” between values parts separate entries of the source, which are not always exact repeats. Equal entries are not always repeated. Where two headings read alike, the source gives them in different places. Where a SMILES comes first, the peptide text is derived from it. Where no end group is shown, it is not given here. [ ]: non-standard residue; d: D form.

Tests used:
P. apista = assay type: cell-based, Pandoraea apista
Procedure: The MBEC (after 2-hour treatments) was determined as described in Jones and Wozniak, PsI Produced by Mucoid Pseudomonas aeruginosa Contributes to the Establishment of Biofilms and Immune Evasion, Am. Soc. Microbiol. 2017, 8(3):e00864-17. Meropenem and tobramycin were included as controls and were both poorly active, with MBEC90 values of >256 μg/mL (data not shown).

[1] = system: Gram-negative bacteria (including P. aeruginosa, E. cloacae, K. pneumoniae, E. coli, and A. baumannii); test: Inner membrane depolarization (diSC3-5 release); assay type: cell-based; conditions: equivalent or superior to melittin, LL37, RI-18, and PMBN
From the text: The mechanism of action of Chp peptides disclosed herein can also be evaluated by measuring the depolarization of the inner membrane of Gram-negative bacteria, including MDR and XDR strains. The inner membrane comprises […] phospholipids such as cardiolipin, phosphatidylglycerol, and phosphatidylserine. This creates a net negative charge at physiological pH, which is believed to enhance the binding of cationic peptides, including the Chp peptides disclosed herein. Upon permeabilization of the outer membrane, the ability of Chp peptides to induce dissipation of the cytoplasmic membrane electrical potential gradient (Ay) may be examined, for example by following the release of 3,3′-dipropylthiadicarbocyanine (diSC3-5) as a function of time compared to an untreated control. DiSC3-5 is a fluorophore that is a caged cation concentrated within the bacterial inner membrane and under the influence of the bacterial membrane electrical potential gradient. At high concentrations, diSC3-5 self-quenches, leading to the suppression of fluorescence. When the inner membrane deteriorates or becomes leaky for cations, including protons, the Δψ dissipates, which leads to a release of diSC3-5 and a subsequent increase in fluorescence. […] Without wishing to be bound by theory, it is believed that the adsorption and binding of Chp peptides to the inner membrane and insertion into the lipid bilayer results in membrane permeabilization and pore/ion channel formation, which is concomitant with the collapse of the membrane's electrical potential.

A. ruhlandii = test: MIC by broth microdilution against A. ruhlandii; assay type: cell-based, Achromobacter ruhlandii; conditions: A. ruhlandii isolates
Procedure: MIC values were determined using a modification of the standard broth microdilution reference method defined by the Clinical and Laboratory Standards Institute (CLSI), CLSL. 2015. Methods for Dilution Antimicrobial Susceptibility Tests for Bacteria That Grow Aerobically; Approved Standard-10th Edition. Clinical and Laboratory Standards Institute, Wayne, PA. The modification was based on the replacement of Mueller Hinton Broth with either CAA media (with and without NaCl) or CAA supplemented with 2.5% human serum. MIC is the minimum concentration of peptide sufficient to suppress at least 80% of the bacterial growth compared to control.
Based on these nine most prevalent strains, direct lytic agents, including GN370, AM1, AM2, and AM3, were evaluated against various isolates from each of the 9 strains. MICs and MBECs (Example 3) were determined, and a sputum inhibition test was conducted, as described below in Example 5.
The MICs for were determined as described below using the broth microdilution method for meropenem, GN370, AM1, AM2, and AM3. The results are shown below in Tables 8-12.

P. aeruginosa = test: Checkerboard synergy assay (FICI) with antibiotics against P. aeruginosa; assay type: cell-based, Pseudomonas aeruginosa; parameters: key to average FICI score with amikacin: FICI: ≤0.5 synergy, >0.5–≤1 additive, >1 indifferent; conditions: for MIC (dual agent): GN370 + meropenem
Method in brief: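 Checkerboard of 2-fold antibiotic dilutions crossed with GN370 (lysin peptide), bacteria at 1×10^5 CFU/ml in CAA, with or without human serum or pulmonary surfactant. ΣFICmin taken as FICI: ≤0.5 synergy, >0.5–≤1 additive, >1 indifferent.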

[2] = P. aeruginosa (ATCC 27853, CFS 1766)
[3] = P. apista (15), 2-hour treatment
[4] = P. aeruginosa (ATCC 27853, CFS 1766), GN370 with meropenem
[5] = P. aeruginosa (CFS 2045), GN370 with meropenem
[6] = P. aeruginosa (CFS 2061), GN370 with meropenem
[7] = P. aeruginosa strain AR-769, GN370 with Amikacin
[8] = P. aeruginosa strain AR-769, GN370 with Cefepime
[9] = P. aeruginosa strain AR-769, GN370 with Ceftazidime
[10] = P. aeruginosa strain AR-769, GN370 with Ciprofloxacin
[11] = P. aeruginosa strain AR-769, GN370 with Colistin
[12] = P. aeruginosa strain AR-769, GN370 with Meropenem
[13] = P. aeruginosa strain AR-769, GN370 with Tobramycin
[14] = P. aeruginosa strain AR-769, in combination with Amikacin
[15] = P. aeruginosa strain AR-769, in combination with Cefepime
[16] = P. aeruginosa strain AR-769, in combination with Ceftazidime
[17] = P. aeruginosa strain AR-769, in combination with Ciprofloxacin
[18] = P. aeruginosa strain AR-769, in combination with Meropenem
[19] = P. aeruginosa strain AR-769, in combination with Tobramycin

CC[C@H](C)[C@H](NC(=O)[C@@H](CCCNC(=N)N)NC(=O)[C@H](Cc1ccccc1)NC(=O)CNC(=O)CNC(=O)[C@@H](CCCNC(=N)N)NC(=O)[C@H](CCSC)NC(=O)[C@@H]1CCCN1C(=O)[C@@H](CCCNC(=N)N)NC(=O)[C@H](C)NC(=O)[C@@H](CCCNC(=N)N)NC(=O)[C@H](CC(C)C)NC(=O)[C@H](CC(N)=O)NC(=O)[C@@H](CCCNC(=N)N)NC(=O)[C@@H](CCCCN)NC(=O)[C@@H](CCCCN)NC(=O)[C@@H](NC(=O)[C@H](CC(N)=O)NC(=O)[C@@H](NC(=O)[C@H](C)NC(=O)CNC(=O)[C@@H](CCCNC(=N)N)NC(=O)[C@@H](NC(=O)[C@H](Cc1ccccc1)NC(=O)[C@@H](NC(=O)[C@@H](CCCCN)NC(=O)[C@@H](CCCNC(=N)N)NC(=O)[C@H](CO)NC(=O)[C@@H](CCCCN)NC(=O)[C@@H](CCCCN)NC(=O)[C@@H](CCCCN)NC(=O)[C@H](CO)NC(=O)[C@H](CC(C)C)NC(=O)[C@@H](CCCCN)NC(=O)[C@@H](CCCNC(=N)N)NC(=O)[C@@H](CCCNC(=N)N)NC(=O)[C@@H](CCCCN)NC(=O)[C@@H](N)CCSC)[C@@H](C)CC)[C@@H](C)O)C(C)C)C(C)C)C(=O)O [AM3] (H-M[dK][dR][dR][dK]LS[dK][dK][dK]S[dR][dK]IFT[dR]GAVNV[dK][dK][dR]NL[dR]A[dR]PM[dR]GGF[dR]I-OH; N-terminus and C-terminus assumed)
MBEC50 (P. apista): 8 µg/mL
MBEC90 (P. apista): 8 µg/mL
MBEC Range (P. apista): 4 to 16 µg/mL
inner membrane depolarization (diSC3-5) [1]: dose-dependent increase in membrane depolarization
MIC50 (A. ruhlandii): 1 µg/mL (≈ 0.219 µM)
MIC90 (A. ruhlandii): > 128 µg/mL

C[C@@H](O)[C@H]1C(=O)N2C(C(=O)O)=C(S[C@@H]3CN[C@H](C(=O)N(C)C)C3)[C@H](C)[C@H]12 [meropenem, reference compound]
MIC (alone) (P. aeruginosa; [2]): 8 µg/mL
MIC (dual agent) (P. aeruginosa; [2]): 0.25 µg/mL
MIC (alone) (P. aeruginosa; P. aeruginosa (CFS 2045)): 32 µg/mL
MIC (dual agent) (P. aeruginosa; P. aeruginosa (CFS 2045)): 4 µg/mL
MIC (alone) (P. aeruginosa; P. aeruginosa (CFS 2061)): 64 µg/mL
MIC (dual agent) (P. aeruginosa; P. aeruginosa (CFS 2061)): 4 µg/mL
FICI of the antibiotic with GN370 (P. aeruginosa; P. aeruginosa ATCC 27853, checkerboard): 0.375
Antibiotic MIC (single agent) (P. aeruginosa; P. aeruginosa strain AR-769): 64 µg/mL
Antibiotic FIC (P. aeruginosa; P. aeruginosa strain AR-769, in combination with GN370): 0.125
Antibiotic MIC (combo) (P. aeruginosa; P. aeruginosa strain AR-769, in combination with GN370, in µg/mL): 8
MIC50 (A. ruhlandii): 16 µg/mL (≈ 41.7 µM)
MIC90 (A. ruhlandii): > 32 µg/mL

MRLKMARRRYRLPRRRSRRLFSRTALRMHPRNRLRRIMRGGIRF [AM1]
MBEC50 (P. apista): 8 µg/mL
MBEC90 (P. apista): 16 µg/mL
inner membrane depolarization (diSC3-5) [1]: dose-dependent increase in membrane depolarization
MIC50 (A. ruhlandii): 1 µg/mL
MIC90 (A. ruhlandii): 4 µg/mL
MIC Range (A. ruhlandii; in µg/mL): 0.125-8

M[dR]L[dK]MA[dR][dR][dR]Y[dR]LP[dR][dR][dR]S[dR][dR]LFS[dR]TAL[dR]MHP[dR]N[dR]L[dR][dR]IM[dR]GGI[dR]F [AM2]
MBEC50 (P. apista): 8 µg/mL
MBEC90 (P. apista): 16 µg/mL
inner membrane depolarization (diSC3-5) [1]: dose-dependent increase in membrane depolarization
MIC50 (A. ruhlandii): 2 µg/mL
MIC90 (A. ruhlandii): 16 µg/mL

B1: GN370: lysin-AMP construct, SEQ ID NO: 149: MIDR, FIRL and NPTH moieties N-terminal to GN202 lysin (protein)
chain: MIDRFIRLNPTHGPRRPRRPGRRAPVRTSQRGIDLIKSFEGLRLSAYQDSVGVWTIGYGTTRGVTRYMTITVEQAERMLSNDIQRFEPELDRLAKVPLNQNQWDALMSFVYNLGAANLASSTLLDLLNKGDYQGAADQFPHWVNAGGKRLDGLVKRRAAERALFLEPLS
modifications: GN370 lysin
MBEC50 (P. apista; [3]): 32 µg/mL
MBEC90 (P. apista; [3]): 64 µg/mL
MBEC Range (P. apista; [3]): 8 to 64 µg/mL
GN370 FIC (P. aeruginosa): 0.125
synergy with meropenem (P. aeruginosa; 3 strains of P. aeruginosa): synergizes with meropenem against P. aeruginosa
MIC (alone) (P. aeruginosa; [2]): 1 µg/mL
MIC (dual agent) (P. aeruginosa; [2]): 0.06 µg/mL
FICmin (P. aeruginosa; [4]): 0.091
FICmin interpretation (P. aeruginosa; [4]): (Synergy)
MIC (alone) (P. aeruginosa; P. aeruginosa (CFS 2045)): 2 µg/mL
MIC (dual agent) (P. aeruginosa; P. aeruginosa (CFS 2045)): 0.06 µg/mL
FICmin (P. aeruginosa; [5]): 0.155
FICmin interpretation (P. aeruginosa; [5]): (Synergy)
MIC (alone) (P. aeruginosa; P. aeruginosa (CFS 2061)): 4 µg/mL
MIC (dual agent) (P. aeruginosa; P. aeruginosa (CFS 2061)): 0.25 µg/mL
FICmin (P. aeruginosa; [6]): 0.125
FICmin interpretation (P. aeruginosa; [6]): (Synergy)
GN370 MIC (single agent) (P. aeruginosa; P. aeruginosa strain AR-769): 2 µg/mL
FICave (P. aeruginosa; [7]): 0.323
FICmin (P. aeruginosa; [7]): 0.281
FICave (P. aeruginosa; [8]): 0.542 and 0.419
FICmin (P. aeruginosa; [8]): 0.5 and 0.375
FICave (P. aeruginosa; [9]): 1.073
FICmin (P. aeruginosa; [9]): 1.031
FICave (P. aeruginosa; [10]): 0.543 and 0.417
FICmin (P. aeruginosa; [10]): 0.5 and 0.375
FICave (P. aeruginosa; [11]): 0.292
FICmin (P. aeruginosa; [11]): 0.25
FICave (P. aeruginosa; [12]): 0.422 and 0.419
FICmin (P. aeruginosa; [12]): 0.375
FICave (P. aeruginosa; [13]): 0.418
FICmin (P. aeruginosa; [13]): 0.375
average FICI score with amikacin (P. aeruginosa; P. aeruginosa strain AR-769, checkerboard): 0.323
GN370 FIC (P. aeruginosa; [14]): 0.031
GN370 MIC (combo) (P. aeruginosa; [14]): 0.063 µg/mL
GN370 FIC (P. aeruginosa; [15]): 0.25
GN370 MIC (combo) (P. aeruginosa; [15]): 0.5 µg/mL
GN370 FIC (P. aeruginosa; [16]): 0.031
GN370 MIC (combo) (P. aeruginosa; [16]): 0.063 µg/mL
GN370 FIC (P. aeruginosa; [17]): 0.25
GN370 MIC (combo) (P. aeruginosa; [17]): 0.5 µg/mL
GN370 MIC (combo) (P. aeruginosa; P. aeruginosa strain AR-769, in combination with Colistin): 0.25 µg/mL
GN370 FIC (P. aeruginosa; [18]): 0.25
GN370 MIC (combo) (P. aeruginosa; [18]): 0.5 µg/mL
GN370 FIC (P. aeruginosa; [19]): 0.25
GN370 MIC (combo) (P. aeruginosa; [19]): 0.5 µg/mL
MIC50 (A. ruhlandii): 2 µg/mL
MIC90 (A. ruhlandii): > 32 µg/mL
